In assay [1] the target is T1, huROR1-His (human ROR1 ECD AA30-406 with C-terminal His tag, made in house) (human, UniProt Q01973 30-406).
T1 construct: range 30-406; Expressed in HEK293; also called antigen protein huROR1-His; not shown: C-terminal His tag
Kind of assay: Gator (BLI) Advanced Kinetics; antibody 30 nM, huROR1-His 480-7.5 nM. Put shortly:
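Biolayer interferometry kinetics in PBS pH 7.4 with 0.02% Tween 20 and 0.2% BSA. Antibody at 30 nM final; huROR1-His analyte in a dilution series of 480, 240, 120, 60, 30, 15 and 7.5 nM.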

Assay [2] has as its target T1, huROR1-His (human ROR1 ECD AA30-406 …). Kind of assay: ELISA, huROR1-His coated plate, goat anti-human Fc-HRP, OD450. In general terms: An ELISA detects its analyte on a solid surface through an enzyme-linked reagent.
The target is the same in assay [3]. The description is as above. The source holds these as a separate data set.
Assay [4] has the same target. Described as above. The source holds these as a separate data set.
Assay [5] shares this target. As to the kind of experiment: ELISA, huROR1-His coated at 2 µg/mL, goat anti-human Fc-HRP, OD450. The essentials: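 Plates were coated overnight at 4° C with 2 μg/mL human ROR1 ECD-His, then blocked with 5% skim milk. Bound antibody was detected with goat anti-human Fc-HRP and TMB, stopped with 2 M HCl and read at OD450.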
In assay [6] the target is T2, huROR2-His (human ROR2 ECD AA34-403 with C-terminal His tag) (human, UniProt Q01974 34-403).
T2 construct: range 34-403; Expressed in HEK293; also called human ROR2 antigen protein; not shown: C-terminal His tag
As to the kind of experiment: ELISA, huROR2-His coated at 2 µg/mL, goat anti-human Fc-HRP, OD450. The essentials:
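Plate coated overnight at 4° C with 2 μg/mL antigen, blocked with 5% skim milk 2 h; bound antibody detected with goat anti-human Fc-HRP for 1 h. TMB development stopped with 2 M HCl, absorbance at OD450.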

In assay [7] the target is T3, MusROR1-His (mouse ROR1 ECD AA30-406 with C-terminal His tag) (mouse, UniProt Q9Z139 30-406).
T3 construct: range 30-406; Expressed in HEK293; also called mouse ROR1 antigen protein; not shown: C-terminal His tag
Kind of assay: ELISA, MusROR1-His coated at 2 µg/mL, goat anti-human Fc-HRP, OD450. The essentials: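 Mouse ROR1 ECD-His coated at 2 μg/mL overnight at 4 °C, blocked with 5% skim milk. Bound antibody detected with goat anti-human Fc-HRP (1 h) and TMB, stopped with 2 M HCl, absorbance at OD450.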

Assay [8] deals with T4, human ROR1 on cells (full-length human ROR1 on huROR1-HEK293 cells; human ROR1 on A549 and HT-29 tumor cells) (human, UniProt Q01973 30-937).
T4 construct: whole, on cells; also called hROR1-HEK293T; A549 tumor cells
Kind of assay: flow cytometry (FACS) on A549 tumor cells, anti-human IgG-Fc secondary antibody, MFI. For orientation: Flow cytometry measures light scatter and fluorescence of single cells or particles in a stream.

The target in assay [9] is T4, human ROR1 on cells (full-length human …). Kind of assay: flow cytometry (FACS) on huROR1-HEK293 cells, anti-human IgG-Fc secondary antibody, MFI.
Assay [10] concerns the target T1, huROR1-His (human ROR1 ECD AA30-406 …). As to the kind of experiment: Biacore T200 SPR; huROR1-His amine-coupled (~75 RU), antibody 4 and 20 nM as analyte, 1:1 Langmuir fit. The protocol:
Protein coupling: The huROR1-His protein produced in Example 1.2 was diluted to 5.6 μg/mL with NaAc buffer, pH 5.0, the flow rate was set to 10 μL/min, the chip activation time was set to the default value of 420 s with a mixture of 1-ethyl-(3-dimethylaminopropyl)carbodiimide (EDC) and N-hydroxysuccinimide (NHS), and the antigen protein huROR1-His was fixed to a level of about 75 RU using a coupling mode with a preset coupling amount, and the activated groups that were not bound to the test sample were blocked with ethanolamine.
Sample test conditions: PBS buffer (pH 7.4) containing 0.05% Tween-20 was used as the running buffer, and the running buffer was used as the control test sample. A series of antibody concentrations (4 nM, 20 nM) were set. During sample analysis, the flow rate was set to 30 μL/min, the binding time was 120 s, and the dissociation time was 360 s. After the dissociation was completed, 10 mM Gly-HCl (pH 2.0) was used for regeneration for 20 s to completely remove the antibody bound to the ligand.
Parameter fitting: The experiment was run in multiple cycles, with the response signal taking the analysis time as the horizontal axis and the response value as the vertical axis. After double reference subtraction, the obtained data were fitted by BiAcore T200 analysis software. The fitting model adopted was 1:1 Langmuir binding model, and Affinity metrics such as the binding dissociation constant were determined.
(SPR reads the build-up and loss of mass on a sensor chip optically.)

The target in assay [11] is T4, human ROR1 on cells (full-length human …). Kind of assay: flow cytometry (FACS) on A549 tumor cells, anti-human IgG-Fc secondary antibody, MFI. The protocol: (§1) The specific method was as follows: A549 cells or HT-29 cells in the logarithmic growth phase were prepared to a single-cell suspension, the density was adjusted to 1×10⁶ cells/mL, 100 µL/well was added to a 96-well round-bottom plate, then centrifuged at 4° C., 300 g, and the supernatant was removed. […] After the incubation, the cell mixture was washed three times and then 100 μL of 1:300 diluted secondary antibody Goat F(ab′)₂ Anti-Human IgG-Fc (abcam, ab98596) was added. The mixture was incubated at 4° C. in the dark for 30 min. After washing three times, the cells were detected by flow cytometry (Beckman, CytoFLEX AOO-1-1102).
The source holds these as a separate data set.

Assay [12] shares this target. Kind of assay: flow cytometry (FACS) on HT29 (HT-29) tumor cells, anti-human IgG-Fc secondary antibody, MFI. The protocol: as §1

T1 sequence (Q01973 30-406 limits assumed): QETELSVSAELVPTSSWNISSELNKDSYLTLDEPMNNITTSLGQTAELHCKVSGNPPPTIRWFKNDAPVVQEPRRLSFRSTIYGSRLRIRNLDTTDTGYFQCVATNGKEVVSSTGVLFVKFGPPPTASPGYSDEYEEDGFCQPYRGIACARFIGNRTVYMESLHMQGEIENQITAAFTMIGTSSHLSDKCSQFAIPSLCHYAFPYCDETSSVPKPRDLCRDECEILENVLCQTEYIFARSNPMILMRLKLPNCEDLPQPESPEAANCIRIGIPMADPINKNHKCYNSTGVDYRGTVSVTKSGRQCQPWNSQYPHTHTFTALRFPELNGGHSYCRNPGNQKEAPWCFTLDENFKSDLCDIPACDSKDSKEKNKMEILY
T4 sequence (Q01973 30-937): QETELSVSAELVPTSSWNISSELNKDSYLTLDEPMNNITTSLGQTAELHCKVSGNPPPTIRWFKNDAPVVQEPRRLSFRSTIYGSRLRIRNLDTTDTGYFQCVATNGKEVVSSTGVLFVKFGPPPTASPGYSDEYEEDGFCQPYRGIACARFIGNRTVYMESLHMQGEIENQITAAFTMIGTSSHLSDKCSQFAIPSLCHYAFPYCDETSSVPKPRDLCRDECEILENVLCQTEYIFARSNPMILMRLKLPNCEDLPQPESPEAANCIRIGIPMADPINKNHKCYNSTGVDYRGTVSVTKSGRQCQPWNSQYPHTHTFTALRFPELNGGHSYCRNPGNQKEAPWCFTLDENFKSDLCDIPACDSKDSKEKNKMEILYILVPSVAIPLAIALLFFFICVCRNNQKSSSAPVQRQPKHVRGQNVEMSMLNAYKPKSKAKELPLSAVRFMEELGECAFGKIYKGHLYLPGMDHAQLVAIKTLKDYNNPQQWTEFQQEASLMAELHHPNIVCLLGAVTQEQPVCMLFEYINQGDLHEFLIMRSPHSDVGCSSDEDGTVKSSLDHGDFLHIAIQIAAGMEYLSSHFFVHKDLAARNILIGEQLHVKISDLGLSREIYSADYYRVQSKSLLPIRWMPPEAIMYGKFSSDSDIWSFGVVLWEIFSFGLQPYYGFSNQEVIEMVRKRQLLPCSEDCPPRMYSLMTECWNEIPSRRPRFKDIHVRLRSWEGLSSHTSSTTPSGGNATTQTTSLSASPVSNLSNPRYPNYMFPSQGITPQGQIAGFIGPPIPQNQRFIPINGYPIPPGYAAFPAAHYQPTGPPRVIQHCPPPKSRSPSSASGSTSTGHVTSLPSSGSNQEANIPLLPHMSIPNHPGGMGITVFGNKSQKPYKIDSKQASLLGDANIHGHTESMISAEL
T3 sequence (Q9Z139 30-406 limits assumed): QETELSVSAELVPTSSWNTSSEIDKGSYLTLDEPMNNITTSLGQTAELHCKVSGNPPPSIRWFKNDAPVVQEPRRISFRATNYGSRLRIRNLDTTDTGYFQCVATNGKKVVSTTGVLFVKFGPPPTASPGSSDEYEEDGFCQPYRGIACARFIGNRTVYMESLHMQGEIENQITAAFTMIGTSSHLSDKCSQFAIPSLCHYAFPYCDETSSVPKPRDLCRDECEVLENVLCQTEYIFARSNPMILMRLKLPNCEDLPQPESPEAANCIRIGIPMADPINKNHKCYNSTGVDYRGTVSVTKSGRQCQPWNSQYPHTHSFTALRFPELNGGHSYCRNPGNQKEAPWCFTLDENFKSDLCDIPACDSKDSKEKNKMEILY
T2 sequence (Q01974 34-403 limits assumed): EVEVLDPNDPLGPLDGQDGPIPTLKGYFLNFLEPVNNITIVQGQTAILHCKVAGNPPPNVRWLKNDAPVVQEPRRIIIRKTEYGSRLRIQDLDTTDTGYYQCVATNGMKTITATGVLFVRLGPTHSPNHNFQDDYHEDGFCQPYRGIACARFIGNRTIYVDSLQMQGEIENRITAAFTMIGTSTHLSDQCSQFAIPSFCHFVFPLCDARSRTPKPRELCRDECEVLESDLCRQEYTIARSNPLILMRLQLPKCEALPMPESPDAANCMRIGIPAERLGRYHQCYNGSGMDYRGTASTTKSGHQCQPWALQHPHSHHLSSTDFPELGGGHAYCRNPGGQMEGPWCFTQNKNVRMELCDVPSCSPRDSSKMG

B1: B31 (chimeric antibody) (antibody, human IgG1, kappa, V domains shown)
VH: EVMLVESGGGLVKPGGSLKLSCAASGFTFSRYAMSWVRQTPEKRLEWVASISRGGSTYYPDSVKGRFTISRDNARNILYLQMSSLRSEDTAMYYCASYFGNYDAMDYWGQGTSVTVSS
VL: DIQMNQSPSSMYASLGERVTITCKASQDINNYVSWFQQKPGKSPKTLIYRANRLVDGVPSRFSGSGSGQDYSFTISSLEYEDMGIYYCLQFDEFPYTFGGGTKLEIKR
notes: ExpiCHO expression
Usually Kd stands for a measure of binding affinity in units of concentration. One may read the koff as the first-order rate constant of dissociation. A lower koff goes with a long-lived complex. What is called kon is the rate constant with which the complex forms. A high value points to faster complex formation. As a reminder, the EC50 is the concentration giving half of the maximal effect. A higher EC50 goes with weaker potency. One may read the EC50 (read off the curve) as the concentration needed to bring the measured effect to its halfway point. B1: the results for the Kd in [1] and in assay [10] were 5.67 nM and 1.25 nM, respectively. For the same molecule, the values for the off-rate constant (koff) in assay [1] and in [10] were 0.00217 s⁻¹ and 0.000817 s⁻¹, respectively. Further, the kon in assay [1] was found to be 383000 M⁻¹ s⁻¹; in [10], 653000 M⁻¹ s⁻¹. Further, the EC50 in [2] was 2.12 ng/mL; in assay [3], 1.92 ng/mL; in [4], 1.63 ng/mL; in assay [5], 5.49 ng/mL. Moreover, the binding result in [6] and in assay [7] was “no binding (tested: 1 µg/mL)” each time. Also, the “EC50 (read off the curve)” value in [8] was approximately 5 ng/mL; in assay [9], approximately 80 ng/mL. Besides, the “t 1/2” value in [10] was found to be 14.1 min.

B2: B31-H3L3 (antibody, human IgG1, kappa, V domains shown)
VH: EVQLVESGGGLVQPGGSLRLSCAASGFTFSRYAMSWVRQAPGKGLEWVASISRGGSTYYADSVKGRFTISRDNSKNTLYLQMNSLRAEDTAVYYCASYFGNYDAMDYWGQGTTVTVSS
VL: DIQMTQSPSSLSASVGDRVTITCRASQDINNYVSWFQQKPGKAPKSLIYRANRLVSGVPSRFSGSGSGTDFTFTISSLQPEDFATYYCLQFDEFPYTFGGGTKLEIKR
B2 gave an EC50 in assay [3] of 4.6 ng/mL. Also, the “EC50 (read off the curve)” value in [11] and in assay [12] was approximately 20 ng/mL each time.

B3: B31-H2L3 (antibody, human IgG1, kappa, V domains shown)
VH: EVQLVESGGGLVQPGGSLRLSCAASGFTFSRYAMSWVRQAPGKGLEWVASISRGGSTYYADSVKGRFTISRDNAKNTLYLQMSSLRAEDTAVYYCASYFGNYDAMDYWGQGTTVTVSS
VL: DIQMTQSPSSLSASVGDRVTITCRASQDINNYVSWFQQKPGKAPKSLIYRANRLVSGVPSRFSGSGSGTDFTFTISSLQPEDFATYYCLQFDEFPYTFGGGTKLEIKR
B3 had an EC50 in assay [2] of 4.29 ng/mL.

B4: B31-H4L3 (antibody, human IgG1, kappa, V domains shown)
VH: EVQLVESGGGLVQPGGSLRLSCAASGFTFSRYAMSWVRQAPGKGLEWVSAISRGGSTYYADSVKGRFTISRDNSKNTLYLQMNSLRAEDTAVYYCASYFGNYDAMDYWGQGTTVTVSS
VL: DIQMTQSPSSLSASVGDRVTITCRASQDINNYVSWFQQKPGKAPKSLIYRANRLVSGVPSRFSGSGSGTDFTFTISSLQPEDFATYYCLQFDEFPYTFGGGTKLEIKR
On to B4, for which the midpoint of the response in assay [4], the EC50, lay at 5.74 ng/mL.

B5: B31-H3L4 (antibody, human IgG1, kappa, V domains shown)
VH: EVQLVESGGGLVQPGGSLRLSCAASGFTFSRYAMSWVRQAPGKGLEWVASISRGGSTYYADSVKGRFTISRDNSKNTLYLQMNSLRAEDTAVYYCASYFGNYDAMDYWGQGTTVTVSS
VL: DIQMTQSPSSLSASVGDRVTITCRASQDINNYLSWFQQKPGKAPKSLIYRANRLQSGVPSRFSGSGSGTDFTLTISSLQPEDFATYYCLQFDEFPYTFGGGTKLEIKR
On to B5, for which the EC50 in assay [3] was found to be 5.23 ng/mL.

B6: B31-H4L2 (antibody, human IgG1, kappa, V domains shown)
VH: EVQLVESGGGLVQPGGSLRLSCAASGFTFSRYAMSWVRQAPGKGLEWVSAISRGGSTYYADSVKGRFTISRDNSKNTLYLQMNSLRAEDTAVYYCASYFGNYDAMDYWGQGTTVTVSS
VL: DIQMTQSPSSLSASVGDRVTITCKASQDINNYVSWFQQKPGKAPKSLIYRANRLVDGVPSRFSGSGSGTDYTFTISSLQPEDFATYYCLQFDEFPYTFGGGTKLEIKR
Regarding B6, in assay [4], a half-maximal effect (EC50) was put at 8.12 ng/mL.

B7: B31-H4L4 (antibody, human IgG1, kappa, V domains shown)
VH: EVQLVESGGGLVQPGGSLRLSCAASGFTFSRYAMSWVRQAPGKGLEWVSAISRGGSTYYADSVKGRFTISRDNSKNTLYLQMNSLRAEDTAVYYCASYFGNYDAMDYWGQGTTVTVSS
VL: DIQMTQSPSSLSASVGDRVTITCRASQDINNYLSWFQQKPGKAPKSLIYRANRLQSGVPSRFSGSGSGTDFTLTISSLQPEDFATYYCLQFDEFPYTFGGGTKLEIKR
Regarding B7, a half-maximal response in assay [4] (EC50) required 17.1 ng/mL.

B8: B31-H3L2 (antibody, human IgG1, kappa, V domains shown)
VH: EVQLVESGGGLVQPGGSLRLSCAASGFTFSRYAMSWVRQAPGKGLEWVASISRGGSTYYADSVKGRFTISRDNSKNTLYLQMNSLRAEDTAVYYCASYFGNYDAMDYWGQGTTVTVSS
VL: DIQMTQSPSSLSASVGDRVTITCKASQDINNYVSWFQQKPGKAPKSLIYRANRLVDGVPSRFSGSGSGTDYTFTISSLQPEDFATYYCLQFDEFPYTFGGGTKLEIKR
The molecule B8 showed an EC50 in assay [3] of 3.23 ng/mL.

(Values after US20250177546A1 (SANYOU BIOPHARMACEUTICALS, published 2025).)
